Laboratory results as given in the supplement of paper PMC11246515.
± gives the standard deviation of the averaged measurements.

Assay: total protein half-life in vivo (active degradation + dilution); higher = more stable protein
[1] = E. coli NCM3722 delta-clpP, growth: N-lim chemostat, doubling time 6 h
[2] = E. coli NCM3722 delta-hslV, growth: N-lim chemostat, doubling time 6 h
[3] = E. coli NCM3722 delta-lon, growth: N-lim chemostat, doubling time 6 h
[4] = E. coli NCM3722 delta-smpB, growth: N-lim chemostat, doubling time 6 h
[5] = wild type E. coli NCM3722, growth: C-lim chemostat, doubling time 6 h
[6] = wild type E. coli NCM3722, growth: C-lim chemostat, doubling time 12 h
[7] = wild type E. coli NCM3722, growth: N-lim chemostat, doubling time 6 h
[8] = wild type E. coli NCM3722, growth: N-lim chemostat, doubling time 12 h
[9] = wild type E. coli NCM3722, growth: P-lim chemostat, doubling time 6 h
[10] = wild type E. coli NCM3722, growth: P-lim chemostat, doubling time 12 h
[11] = E. coli NCM3722 delta-clpP delta-lon delta-hslV, growth: N-lim chemostat, doubling time 6 h
[12] = wild type E. coli NCM3722, growth: C-lim chemostat, doubling time 3 h

Sequence | total protein half-life in vivo [1] [h] | total protein half-life in vivo [2] [h] | total protein half-life in vivo [3] [h] | total protein half-life in vivo [4] [h] | total protein half-life in vivo [5] [h] | total protein half-life in vivo [6] [h] | total protein half-life in vivo [7] [h] | total protein half-life in vivo [8] [h] | total protein half-life in vivo [9] [h] | total protein half-life in vivo [10] [h] | total protein half-life in vivo [11] [h] | total protein half-life in vivo [12] [h]
MSWISPELIEILLTILKAVVILLVVVTCGAFMSFGERRLLGLFQNRYGPNRVGWGGSLQLVADMIKMFFKEDWIPKFSDRVIFTLAPMIAFTSLLLAFAIVPVSPGWVVADLNIGILFFLMMAGLAVYAVLFAGWSSNNKYSLLGAMRASAQTLSYEVFLGLSLMGVVAQAGSFNMTDIVNSQAHVWNVIPQFFGFITFAIAGVAVCHRHPFDQPEAEQELADGYHIEYSGMKFGLFFVGEYIGIVTISALMVTLFFGGWQGPLLPPFIWFALKTAFFMMMFILIRASLPRPRYDQVMSFGWKICLPLTLINLLVTAAVILWQAQ [P0AFD4] | 6.49 ± 0.27 | 5.73 ± 0.34 | 6.09 ± 0.59 | 6.41 ± 1.4 | 6.75 ± 1.2 | 13.8 ± 2 | 6.53 ± 0.46 | 9.26 ± 2 | 6.237 ± 0.017 | 13.1 ± 3 |  | 
MSWLKEVIGTEKAVIAMCHLRALPGDPSFDAQLGMNWVIDKAWDDLMALQNGGVDAVMFSNEFSLPYLTKVRPETTAAMARIIGQLMSDIRIPFGVNVLWDPVASFDLAMATGAKFIREIFTGAYASDFGVWDTNVGETIRHQHRIGAGEVKTLFNIVPEAAVYLGNRDICSIAKSTVFNNHPDALCVSGLTAGTRTDSALLKRVKETVPDTVVLANTGVCLENVEEQLSIADGCVTATTFKKDGVFANFVDQARVSQFMEKVHHIRR |  |  |  |  | 5.65 ± 0.48 | 8.62 ± 0.11 |  |  |  | 3.45 | 4.34 ± 0.67 | 1.07 ± 0.83
MSYLNLRLYQRNTQCLHIRKHRLAGFFVRLVVACAFAAQAPLSSADLYFNPRFLADDPQAVADLSRFENGQELPPGTYRVDIYLNNGYMATRDVTFNTGDSEQGIVPCLTRAQLASMGLNTASVAGMNLLADDACVPLTTMVQDATAHLDVGQQRLNLTIPQAFMSNRARGYIPPELWDPGINAGLLNYNFSGNSVQNRIGGNSHYAYLNLQSGLNIGAWRLRDNTTWSYNSSDRSSGSKNKWQHINTWLERDIIPLRSRLTLGDGYTQGDIFDGINFRGAQLASDDNMLPDSQRGFAPVIHGIARGTAQVTIKQNGYDIYNSTVPPGPFTINDIYAAGNSGDLQVTIKEADGSTQIFTVPYSSVPLLQREGHTRYSITAGEYRSGNAQQEKTRFFQSTLLHGLPAGWTIYGGTQLADRYRAFNFGIGKNMGALGALSVDMTQANSTLPDDSQHDGQSVRFLYNKSLNESGTNIQLVGYRYSTSGYFNFADTTYSRMNGYNIETQDGVIQVKPKFTDYYNLAYNKRGKLQLTVTQQLGRTSTLYLSGSHQTYWGTSNVDEQFQAGLNTAFEDINWTLSYSLTKNAWQKGRDQMLALNVNIPFSHWLRSDSKSQWRHASASYSMSHDLNGRMTNLAGVYGTLLEDNNLSYSVQTGYAGGGDGNSGSTGYATLNYRGGYGNANIGYSHSDDIKQLYYGVSGGVLAHANGVTLGQPLNDTVVLVKAPGAKDAKVENQTGVRTDWRGYAVLPYATEYRENRVALDTNTLADNVDLDNAVANVVPTRGAIVRAEFKARVGIKLLMTLTHNNKPLPFGAMVTSESSQSSGIVADNGQVYLSGMPLAGKVQVKWGEEENAHCVANYQLPPESQQQLLTQLSAECR |  |  |  | 5.97 ± 0.21 | 6.02 | > 16 | > 8 | > 16 | 6.2 | > 16 |  | 3.14
MSYPSLFAPLDLGFTTLKNRVLMGSMHTGLEEYPDGAERLAAFYAERARHGVALIVSGGIAPDLTGVGMEGGAMLNDASQIPHHRTITEAVHQEGGKIALQILHTGRYSYQPHLVAPSALQAPINRFVPHELSHEEILQLIDNFARCAQLAREAGYDGVEVMGSEGYLINEFLTLRTNQRSDQWGGDYRNRMRFAVEVVRAVRERVGNDFIIIYRLSMLDLVEDGGTFAETVELAQAIEAAGATIINTGIGWHEARIPTIATPVPRGAFSWVTRKLKGHVSLPLVTTNRINDPQVADDILSRGDADMVSMARPFLADAELLSKAQSGRADEINTCIGCNQACLDQIFVGKVTSCLVNPRACHETKMPILPAVQKKNLAVVGAGPAGLAFAINAAARGHQVTLFDAHSEIGGQFNIAKQIPGKEEFYETLRYYRRMIEVTGVTLKLNHTVTADQLQAFDETILASGIVPRTPPIDGIDHPKVLSYLDVLRDKAPVGNKVAIIGCGGIGFDTAMYLSQPGESTSQNIAGFCNEWGIDSSLQQAGGLSPQGMQIPRSPRQIVMLQRKASKPGQGLGKTTGWIHRTTLLSRGVKMIPGVSYQKIDDDGLHVVINGETQVLAVDNVVICAGQEPNRALAQPLIDSGKTVHLIGGCDVAMELDARRAIAQGTRLALEI | 3.52 ± 0.043 |  |  | 2.74 ± 0.96 | 4.94 ± 0.13 | 9.61 ± 2.1 |  |  | 5.18 ± 0.79 | 10.6 ± 0.13 | 6.33 ± 2.2 | 2.93 ± 0.18
MSYQYVNVVTINKVAVIEFNYGRKLNALSKVFIDDLMQALSDLNRPEIRCIILRAPSGSKVFSAGHDIHELPSGGRDPLSYDDPLRQITRMIQKFPKPIISMVEGSVWGGAFEMIMSSDLIIAASTSTFSMTPVNLGVPYNLVGIHNLTRDAGFHIVKELIFTASPITAQRALAVGILNHVVEVEELEDFTLQMAHHISEKAPLAIAVIKEELRVLGEAHTMNSDEFERIQGMRRAVYDSEDYQEGMNAFLEKRKPNFVGH |  |  |  |  | 2.79 | 6.64 |  |  |  |  | 5.13 | 2.48
MSYTLPSLPYAYDALEPHFDKQTMEIHHTKHHQTYVNNANAALESLPEFANLPVEELITKLDQLPADKKTVLRNNAGGHANHSLFWKGLKKGTTLQGDLKAAIERDFGSVDNFKAEFEKAAASRFGSGWAWLVLKGDKLAVVSTANQDSPLMGEAISGASGFPIMGLDVWEHAYYLKFQNRRPDYIKEFWNVVNWDEAAARFAAKK | 5.61 ± 0.3 | 5.5 ± 0.16 | 7.05 ± 1.2 | 4.96 ± 1.2 | 5.11 ± 0.91 | 11.3 ± 1.7 | 4.87 ± 1.1 | 9.5 ± 0.12 | 5.31 ± 0.55 | 11.3 ± 0.15 | 6.4 ± 0.78 | 
